Legend:
HeLa Kyoto [1] = assay: thermal stability score vs G1/S (z-score of summed log2 fold changes over temperatures); higher = more thermally stable than in G1/S
HeLa Kyoto [2] = assay: solubility change mitosis vs G1/S (difference of NP-40 vs SDS log2 ratios) (log2 ratio difference); higher = more soluble in mitosis
HeLa Kyoto [3] = assay: solubility in G1/S (NP-40 vs SDS abundance) (log2 ratio); higher = more soluble; settings: cell cycle stage: G1/S
HeLa Kyoto [4] = assay: melting temperature (median over replicates), in situ; higher = more thermally stable
[5] = cell cycle stage: early G1 (4.5 h after nocodazole release)
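For melting temperature (median over replicates), in situ in this document: HeLa Kyoto cells synchronized by double thymidine or nocodazole block, proteins quantified by TMT10plex mass spectrometry, three independent biological replicates.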
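For solubility change mitosis vs G1/S (difference of NP-40 vs SDS log2 ratios) in this document: synchronized HeLa Kyoto cells (double thymidine block for G1/S, nocodazole release for mitosis), protein amounts in NP-40 versus SDS lysates quantified by mass spectrometry, three biological replicates.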
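For solubility in G1/S (NP-40 vs SDS abundance) in this document: HeLa Kyoto cells arrested at G1/S by double thymidine block, proteins quantified by TMT10plex mass spectrometry in mild NP-40 versus SDS extracts, three biological replicates.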
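For thermal stability score vs G1/S (z-score of summed log2 fold changes over temperatures) in this document: synchronized HeLa Kyoto cells, proteins quantified by TMT10plex mass spectrometry, three biological replicates, mitosis taken 0.5 h after nocodazole release, G1/S directly after double thymidine block.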

| Sequence | thermal stability score (HeLa Kyoto [1]; [5]) | thermal stability score (HeLa Kyoto [1]; cell cycle stage: mitosis) | solubility change mitosis (log2) (HeLa Kyoto [2]) | solubility in G1/S (log2) (HeLa Kyoto [3]) | melting temperature (HeLa Kyoto [4]; cell cycle stage: G1/S) [°C] | melting temperature (HeLa Kyoto [4]; cell cycle stage: mitosis) [°C] |
| --- | --- | --- | --- | --- | --- | --- |
| MAGTRWVLGALLRGCGCNCSSCRRTGAACLPFYSAAGSIPSGVSGRRRLLLLLGAAAAAASQTRGLQTGPVPPGRLAGPPAVATSAAAAAAASYSALRASLLPQSLAAAAAVPTRSYSQESKTTYLEDLPPPPEYELAPSKLEEEVDDVFLIRAQGLPWSCTMEDVLNFFSDCRIRNGENGIHFLLNRDGKRRGDALIEMESEQDVQKALEKHRMYMGQRYVEVYEINNEDVDALMKSLQVKSSPVVNDGVVRLRGLPYSCNEKDIVDFFAGLNIVDITFVMDYRGRRKTGEAYVQFEEPEMANQALLKHREEIGNRYIEIFPSRRNEVRTHVGSYKGKKIASFPTAKYITEPEMVFEEHEVNEDIQPMTAFESEKEIELPKEVPEKLPEAADFGTTSSLHFVHMRGLPFQANAQDIINFFAPLKPVRITMEYSSSGKATGEADVHFETHEDAVAAMLKDRSHVHHRYIELFLNSCPKGK [GRSF1] | 0.523 | 3.06 | -0.0298 | 0.345 | 47.9 | 49.1 |
| MAGTVVLDDVELREAQRDYLDFLDDEEDQGIYQSKVRELISDNQYRLIVNVNDLRRKNEKRANRLLNNAFEELVAFQRALKDFVASIDATYAKQYEEFYVGLEGSFGSKHVSPRTLTSCFLSCVVCVEGIVTKCSLVRPKVVRSVHYCPATKKTIERRYSDLTTLVAFPSSSVYPTKDEENNPLETEYGLSVYKDHQTITIQEMPEKAPAGQLPRSVDVILDDDLVDKAKPGDRVQVVGTYRCLPGKKGGYTSGTFRTVLIACNVKQMSKDAQPSFSAEDIAKIKKFSKTRSKDIFDQLAKSLAPSIHGHDYVKKAILCLLLGGVERDLENGSHIRGDINILLIGDPSVAKSQLLRYVLCTAPRAIPTTGRGSSGVGLTAAVTTDQETGERRLEAGAMVLADRGVVCIDEFDKMSDMDRTAIHEVMEQGRVTIAKAGIHARLNARCSVLAAANPVYGRYDQYKTPMENIGLQDSLLSRFDLLFIMLDQMDPEQDREISDHVLRMHRYRAPGEQDGDAMPLGSAVDILATDDPNFSQEDQQDTQIYEKHDNLLHGTKKKKEKMVSAAFMKKYIHVAKIIKPVLTQESATYIAEEYSRLRSQDSMSSDTARTSPVTARTLETLIRLATAHAKARMSKTVDLQDAEEAVELVQYAYFKKVLEKEKKRKKRSEDESETEDEEEKSQEDQEQKRKRRKTRQPDAKDGDSYDPYDFSDTEEEMPQVHTPKTADSQETKESQKVELSESRLKAFKVALLDVFREAHAQSIGMNRLTESINRDSEEPFSSVEIQAALSKMQDDNQVMVSEGIIFLI [MCM3] | 1.52 | 2.24 | -0.0464 | 0.00594 | 51.5 | 51.2 |
| MAGVGAGPLRAMGRQALLLLALCATGAQGLYFHIGETEKRCFIEEIPDETMVIGNYRTQMWDKQKEVFLPSTPGLGMHVEVKDPDGKVVLSRQYGSEGRFTFTSHTPGDHQICLHSNSTRMALFAGGKLRVHLDIQVGEHANNYPEIAAKDKLTELQLRARQLLDQVEQIQKEQDYQRYREERFRLTSESTNQRVLWWSIAQTVILILTGIWQMRHLKSFFEAKKLV [TMED4] | 2.03 | 0.764 | -0.0477 | 0.179 | 56 | 56.4 |
| MAGVRSLRCSRGCAGGCECGDKGKCSDSSLLGKRLSEDSSRHQLLQKWASMWSSMSEDASVADMERAQLEEEAAAAEERPLVFLCSGCRRPLGDSLSWVASQEDTNCILLRCVSCNVSVDKEQKLSKREKENGCVLETLCCAGCSLNLGYVYRCTPKNLDYKRDLFCLSVEAIESYVLGSSEKQIVSEDKELFNLESRVEIEKSLTQMEDVLKALQMKLWEAESKLSFATCKS [MIS18A] | -2.17 | -2.88 | 0.371 | -0.162 | 51.3 | 51.9 |

— the supplement of paper PMC5998384
